From patent publication US9809835B2, “Quantitative control of sialylation” (Roche Diagnostics Operations, Inc., priority 2013, dated 2017)

B1: Δ89 hST6Gal-I: N-terminally truncated human β-galactoside-α-2,6-sialyltransferase I, positions 1 to 89 of SEQ ID NO:1 deleted; amino acid sequence of SEQ ID NO:2 (protein)
chain: EASFQVWNKDSSSKNLIPRLQKIWKNYLSMNKYKVSYKGPGPGIKFSAEALRCHLRDHVNVSMVEVTDFPFNTSEWEGYLPKESIRTKAGPWGRCAVVSSAGSLKSSQLGREIDDHDAVLRFNGAPTANFQQDVGTKTTIRLMNSQLVTTEKRFLKDSLYNEGILIVWDPSVYHSDIPKWYQNPDYNFFNNYKTYRKLHPNQPFYILKPQMPWELWDILQEISPEEIQPNPPSSGMLGIIIMMTLCDQVDIYEFLPSKRKTDVCYYYQKFFDSACTMGAYHPLLYEKNLVKHLNQGTDEDIYLLGKATLPGFRTIHC
modifications: delta89 truncation variant of hST6Gal-I

Columns and labels:
Δ89 hST6Gal-I = target: T1, Δ89 hST6Gal-I (Homo sapiens, UniProt P15907); experiment: Inhibition of sialidase activity of Δ89 hST6Gal-I by CTP; assay type: biochemical
T1 construct: the construct of Epo-AP-Δ89 hST6Gal-I was secreted without the N-terminal amino acids AP; Erythropoietin signal peptide (Epo) (N, cleaved yes); AP spacer (two amino acids) (N, cleaved yes); made in house; host or cells: HEK293 (transient gene expression, secreted)
T1 sequence (P15907 90-406): B1 chain
Method: The compound cytidine triphosphate (CTP) is a potent inhibitor of sialyltransferases (Scudder P R & Chantler E N B B A 660 (1981) 136-141). […] After 7 h of incubation the G2+2SA content was 94%. […] At different times samples were taken and the content of G2+0SA, G2+1SA and G2+2SA was determined by mass spectrometry. […] After 72 h of incubation 73% of G2+2SA were still present.

MAB<IL-1R> = experiment: Sialylation of humanized monoclonal antibody MAB<IL-1R> using Δ89 hST6Gal-I, glycan content by mass spectrometry; assay type: biochemical
Method: A highly galactosylated humanized monoclonal antibody IgG4 MAB<IL-1R>(WO 2005/023872) was used in sialylation experiments. […] The samples were incubated at 37° C. for a defined time. To stop the reaction the samples were frozen at −20° C. For mass analysis 100 μl denaturing buffer (6 M guanidinium chloride) and 30 μl TCEP (0.1 mM, diluted in denaturing buffer) were added to the samples and the samples were incubated at 37° C. for 1 h. The sample were buffered in electrospray-medium (20% ACN, 1% FA) using pre-equilibrated illustra™ Nap5-Columns (GE-Healthcare). Samples were analyzed by electrospray ionization mass spectrometry and the content of G2+0SA, G2+1SA and G2+2SA N-glycans was determined. A Micromass Q-Tof Ultima and a Synapt G2 HDMS device (Waters UK) were used, the software used was MassLynx V 4.1. To determine the kinetics of the sialylation the reaction was incubated up to 72 h.

Row | Molecule | degradation of G2+2SA caused by the sialidase activity (Δ89 hST6Gal-I; CTP 0.67 mM, compared to inhibitor-free conditions) | G2+2SA still present (Δ89 hST6Gal-I; after 72 h of incubation, CTP added after 7 h, final concentration 0.67 mM) [%] | content of the bi-sialylated form G2+2SA (MAB<IL-1R>; after 2 hours of incubation, 37° C., 30 μg enzyme/300 μg MAB<IL-1R>, CMP-NANA donor) [%] | G2+2SA content (MAB<IL-1R>; after 7 h of incubation, before addition of CTP (Example 11)) [%] | G2+1SA content (MAB<IL-1R>; after an incubation of 48 h, 37° C., 30 μg enzyme/300 μg MAB<IL-1R>, CMP-NANA donor) [%] | dominant glycan species of MAB<IL-1R> (mass spectrum) (MAB<IL-1R>; t=8 h) | dominant glycan species of MAB<IL-1R> (mass spectrum) (MAB<IL-1R>; t=48 h)
1 | Nc1ccn([C@@H]2O[C@H](COP(=O)(O)OP(=O)(O)OP(=O)(O)O)[C@@H](O)[C@H]2O)c(=O)n1 [CTP, cytidine triphosphate] | significantly reduced | 73 |  |  |  |  | 
2 | B1 |  |  | 88 | 94 | 71 | G2+2SA is the dominant form | G2+1SA is the most abundant species
